Data published in patent publication US8450280B2, “Activation of peptide prodrugs by hK2” (GenbSpera, Inc., priority 1999, dated 2013).

Target: T1, hK2 (Homo sapiens, UniProt P20151)
T1 construct: made in house
Assay: Inhibition of hK2 by protease inhibitors (substrate H-Pro-Phe-Arg-AMC)
Assay type: biochemical
Conditions: for Activity (%) of hK2, percentage of inhibitor-free control: 10 minutes of incubation, 8.3 nM hK2, 90 μM substrate
Method: Activity of hK2 (1.6 pmol) was monitored using the substrate H-Pro-Phe-Arg-AMC (SEQ ID NO: 55) (90 μM). Inhibitors, at commonly used concentrations, and hK2 (8.3 nM) were mixed and proteolysis of 90 μM H-Pro-Phe-Arg-AMC (SEQ ID NO: 55) was followed up to 20 minutes, starting directly or 10 minutes after mixing the enzyme with various inhibitors. Inhibition was evaluated by comparison with […] controls.
The proteolytic activity is expressed in percentage of inhibitor-free control after 10 minutes of incubation.
Therefore, PPACK can be used to obtain fast irreversible inhibition of hK2.

T1 sequence (P20151 25-261): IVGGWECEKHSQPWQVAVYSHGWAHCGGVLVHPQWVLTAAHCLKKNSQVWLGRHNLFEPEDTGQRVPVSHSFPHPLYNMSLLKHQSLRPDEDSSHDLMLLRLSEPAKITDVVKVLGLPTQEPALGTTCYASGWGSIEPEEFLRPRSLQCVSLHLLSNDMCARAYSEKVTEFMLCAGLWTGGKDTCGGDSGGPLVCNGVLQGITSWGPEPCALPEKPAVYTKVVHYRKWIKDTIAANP

Row | Molecule | Activity (%) of hK2, percentage of inhibitor-free control (inhibitor 0.016 μM) [%] | Activity (%) of hK2, percentage of inhibitor-free control (inhibitor 0.08 μM) [%] | inhibition of the hK2 activity (in words) (100-fold molar excess, 20 minute measurement time) | Activity (%) of hK2, percentage of inhibitor-free control (inhibitor 0.8 μM) [%] | inhibition of hK2 (in words) (8 nM hK2, 90 μM substrate) | Activity (%) of hK2, percentage of inhibitor-free control (inhibitor 4 μM) [%]
1 | PCl: protein C inhibitor (PCI), plasma protease inhibitor (serpin) (protein) HRHHPREMKKRVEDLHVGATVAPSSRRDFTFDLYRALASAAPSQSIFFSPVSISMSLAMLSLGAGSSTKMQILEGLGLNLQKSSEKELHRGFQQLLQELNQPRDGFQLSLGNALFTDLVVDLQDTFVSAMKTLYLADTFPTNFRDSAGAMKQINDYVAKQTKGKIVDLLKNLDSNAVVIMVNYIFFKAKWETSFNHKGTQEQDFYVTSETVVRVPMMSREDQYHYLLDRNLSCRVVGVPYQGNATALFILPSEGKMQQVENGLSEKTLRKWLKMFKKRQLELYLPKFSIEGSYQLEKVLPSLGISNVFTSHADLSGISNHSNIQVSEMVHKAVVEVDESGTRAAAATGTIFTFRSARLNSQRLVFNRPFLMFIVDNNILFLGKVNRP | 50 | 0 | – | – | – | –
2 | ACT: α1-antichymotrypsin purified from human blood plasma (protein) HPNSPLDEENLTQENQDRGTHVDLGLASANVDFAFSLYKQLVLKAPDKNVIFSPLSISTALAFLSLGAHNTTLTEILKGLKFNLTETSEAEIHQSFQHLLRTLNQSSDELQLSMGNAMFVKEQLSLLDRFTEDAKRLYGSEAFATDFQDSAAAKKLINDYVKNGTRGKITDLIKDLDSQTMMVLVNYIFFKAKWEMPFDPQDTHQSRFYLSKKKWVMVPMMSLHHLTIPYFRDEELSCTVVELKYTGNASALFILPDQDKMEEVEAMLLPETLKRWRDSLEFREIGELYLPKFSISRDYNLNDILLQLGIEEAFTSKADLSGITGARNLAVSQVVHKAVLDVFEEGTEASAATAVKITLLSALVETRTIVRFNRPFLMIIVPTDTQNIFFMSKVTNPKQA | – | – | no inhibition | 100 | – | –
3 | SLPI: protease inhibitor present in the prostate (protein) SGKSFKAGVCPPKKSAQCLRYKKPECQSDWQCPGKKRCCPDTCGIKCLDPVDTPNPTRRKPGKCPVTYGQCLMLNPPNFCEMDGQCKRDLKCCMGMCGKSCVSPVKA | – | 92 | – | – | inhibited hK2 weakly | 35
